Test results from US20190241662A1 (ADAGENE, published 2019).
Where a chain is given by its changes, count along the chain named.

How the values were obtained:
[1] = molecular target: T1, human TNFR1 on HEK293F cells (human, UniProt P19438 30-455); assay: flow cytometry, transfected HEK293F cells [Cont.]
T1 construct: whole, on cells; also called CD120a
T1 sequence (looked up): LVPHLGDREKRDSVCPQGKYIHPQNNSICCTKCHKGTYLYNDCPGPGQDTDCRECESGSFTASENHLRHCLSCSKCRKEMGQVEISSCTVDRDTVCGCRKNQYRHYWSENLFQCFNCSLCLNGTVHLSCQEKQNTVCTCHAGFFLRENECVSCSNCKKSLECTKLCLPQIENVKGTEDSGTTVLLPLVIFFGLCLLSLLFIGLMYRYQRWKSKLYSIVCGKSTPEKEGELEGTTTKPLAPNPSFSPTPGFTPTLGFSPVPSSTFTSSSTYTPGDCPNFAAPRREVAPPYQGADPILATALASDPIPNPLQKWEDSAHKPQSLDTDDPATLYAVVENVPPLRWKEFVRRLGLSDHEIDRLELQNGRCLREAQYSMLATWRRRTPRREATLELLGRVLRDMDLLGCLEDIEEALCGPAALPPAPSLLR
Procedure: (§1) Antibody selectivity was next examined. Human CTLA4, PD1, LAG3, Tim3, B7H3, CD95, TNFR1, OX40, CD40, PD-L1, BLTA, VISTA, PDL2, ICOS and B7H4 were transiently overexpressed on the surface of HEK293F cells. Transfected cells were washed in pre-chilled 1×PBSA buffer (1.76 mM KH2PO4, 10.14 mM Na2HPO4.12H2O, 2.68 mM KCl, 136.89 mM NaCl and 1% BSA), then incubated with 100 nM test antibodies for 1 hour on ice. Cells were washed once with staining buffer, and Alexa Fluor® 647 conjugated mouse anti-human FC antibodies were added and incubated for 30 minutes on ice, protected from light. Samples were washed once with staining buffer prior to analysis by flow cytometry.

[2] = molecular target: T2, human CD95 on HEK293F cells (human, UniProt P25445 26-335); assay: flow cytometry, transfected HEK293F cells, 100 nM antibody [Cont.]
T2 construct: whole, on cells
T2 sequence (looked up): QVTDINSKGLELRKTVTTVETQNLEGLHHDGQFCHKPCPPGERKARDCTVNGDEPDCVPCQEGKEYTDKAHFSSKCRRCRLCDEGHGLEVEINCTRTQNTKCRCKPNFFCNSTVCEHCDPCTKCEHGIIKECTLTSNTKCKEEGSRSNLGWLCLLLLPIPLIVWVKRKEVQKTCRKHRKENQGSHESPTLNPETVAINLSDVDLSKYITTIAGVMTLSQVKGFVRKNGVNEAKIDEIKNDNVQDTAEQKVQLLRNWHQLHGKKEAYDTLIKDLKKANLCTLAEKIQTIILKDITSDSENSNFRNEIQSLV
Procedure: as §1

[3] = molecular target: T3, human PD1 on HEK293F cells (human, UniProt Q15116 25-288); assay: flow cytometry, transfected HEK293F cells [Cont.]
T3 construct: whole, on cells
Procedure: as §1

[4] = molecular target: T3, human PD1 on HEK293F cells; assay: flow cytometry, transfected HEK293F cells, 100 nM antibody [Cont.]
Procedure: as §1

[5] = molecular target: T4, human Tim3 on HEK293F cells (human, UniProt Q8TDQ0 22-301); assay: as above
T4 construct: whole, on cells
T4 sequence (looked up): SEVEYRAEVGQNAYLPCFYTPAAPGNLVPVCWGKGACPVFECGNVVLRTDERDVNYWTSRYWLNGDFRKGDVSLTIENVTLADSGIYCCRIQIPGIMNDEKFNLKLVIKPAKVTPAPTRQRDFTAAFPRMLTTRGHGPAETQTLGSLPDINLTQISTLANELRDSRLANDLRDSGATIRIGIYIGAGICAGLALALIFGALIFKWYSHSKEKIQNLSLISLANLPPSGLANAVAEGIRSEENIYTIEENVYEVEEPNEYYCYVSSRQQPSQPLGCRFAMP
Procedure: as §1

[6] = molecular target: T5, human B7H3 on HEK293F cells (human, UniProt Q5ZPR3 29-534); assay: as above
T5 construct: whole, on cells
T5 sequence (looked up): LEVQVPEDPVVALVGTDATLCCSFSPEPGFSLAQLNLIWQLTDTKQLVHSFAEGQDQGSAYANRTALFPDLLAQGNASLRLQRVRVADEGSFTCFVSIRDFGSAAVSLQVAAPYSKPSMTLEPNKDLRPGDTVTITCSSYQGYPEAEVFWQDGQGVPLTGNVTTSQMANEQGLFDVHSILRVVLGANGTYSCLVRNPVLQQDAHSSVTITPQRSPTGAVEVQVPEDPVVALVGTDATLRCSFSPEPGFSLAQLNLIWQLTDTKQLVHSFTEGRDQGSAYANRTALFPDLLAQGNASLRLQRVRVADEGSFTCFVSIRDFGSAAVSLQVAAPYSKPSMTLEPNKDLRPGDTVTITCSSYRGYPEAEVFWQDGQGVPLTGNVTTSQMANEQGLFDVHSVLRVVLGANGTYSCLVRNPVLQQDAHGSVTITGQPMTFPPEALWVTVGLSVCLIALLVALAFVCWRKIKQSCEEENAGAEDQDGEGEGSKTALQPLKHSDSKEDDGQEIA
Procedure: as §1

[7] = molecular target: T6, human CD40 on HEK293F cells (human, UniProt P25942 21-277); assay: as above
T6 construct: whole, on cells
Procedure: as §1

T3 sequence (Q15116 25-288): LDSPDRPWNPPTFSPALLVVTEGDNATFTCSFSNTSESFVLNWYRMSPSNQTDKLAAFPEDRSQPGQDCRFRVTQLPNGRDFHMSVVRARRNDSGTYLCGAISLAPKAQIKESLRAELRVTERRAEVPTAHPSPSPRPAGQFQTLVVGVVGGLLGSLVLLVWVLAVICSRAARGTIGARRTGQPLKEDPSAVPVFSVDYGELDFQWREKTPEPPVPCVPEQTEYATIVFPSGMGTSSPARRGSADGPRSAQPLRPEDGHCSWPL
T6 sequence (P25942 21-277): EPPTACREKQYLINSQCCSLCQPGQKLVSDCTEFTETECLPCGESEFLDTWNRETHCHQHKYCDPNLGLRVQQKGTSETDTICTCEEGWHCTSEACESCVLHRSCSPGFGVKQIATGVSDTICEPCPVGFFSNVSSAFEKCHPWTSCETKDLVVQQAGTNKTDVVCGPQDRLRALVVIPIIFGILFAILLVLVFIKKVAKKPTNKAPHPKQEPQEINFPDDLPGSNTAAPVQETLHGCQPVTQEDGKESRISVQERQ

B1: TY21591 (antibody, V domains shown)
VH: EVQLVESGGGLVQPGGSLRLSCAASGFSLSTGGVAVSWIRQAPGKGLEWIGEIYHSGSTYYSPSLKSRVTISRDNSKNTLYLQLNSLRAEDTAVYYCARRIATATYFDYWGQGTLVTVSS
VL: DIQLTQSPSSLSASVGDRVTITCRASQTVFSRYLAWYQQKPGKAPKLLIYDASNRATGIPSRFSGSGSGTDFTLTISSLQPEDFATYYCQQSYYWPPWTFGQGTKVEIK
notes: human IgG1 (hIgG1) from Fab hit B15756
[1]
  binding result: no binding (tested: 100 nM)
[2]
  % of cells in upper right quadrant (Q2): 0.22
  Mean: 5570

B2: TY21687 (antibody, V domains shown)
VH: EVQLVESGGGLVQPGGSLRLSCAASGFTFSGYAIHWVRQAPGKGLEWIGIISPSGGGTKYAQKFQGRVTISRDNSKNTLYLQLNSLRAEDTAVYYCARHPFAYWGQGTLVTVSS
VL: DIQLTQSPSSLSASVGDRVTITCRASQSVDFYGISFLDWYQQKPGKAPKLLIYDASNRATGIPSRFSGSGSGTDFTLTISSLQPEDFATYYCQQYVSSPPEYTFGQGTKVEIK
notes: human IgG1 (hIgG1) from Fab hit B15700
[3]
  binding result: no binding (tested: 100 nM)
[4]
  % of cells in upper right quadrant (Q2): 5.96%
[5]
  % of cells in upper right quadrant (Q2): 1.85%
[6]
  % of cells in upper right quadrant (Q2): 1.29%

B3: TY21585 (antibody, V domains shown)
VH: EVQLVESGGGLVQPGGSLRLSCAASGFTFSDYAIHWVRQAPGKGLEWIGIISPSSGSTNYAQKFQGRVTISRDNSKNTLYLQLNSLRAEDTAVYYCARDIHSGSSGYYYGFDVWGQGTLVTVSS
VL: B2 VL with Q27E, Y32F, D38A, Q94H, V96T, E101V
notes: human IgG1 (hIgG1) from Fab hit B15709
[7]
  % of cells in upper right quadrant (Q2): 0.95
  Mean: 8270
